{"source": "the PETadex activity labels", "proteins": {"B1": {"name": "unnamed (protein)", "chain": "ANPYERGPNPTDALLEARSGPFSVSEENVSRLSASGFGGGTIYYPRENNTYGAVAISPGYTGTEASIAWLGERIASHGFVVITIDTITTLDQPDSRAEQLNAALNHMINRASSTVRSRIDSSRLAVMGHSMGGGGSLRLASQRPDLKAAIPLTPWHLNKNWSSVTVPTLIIGADLDTIAPVATHAKPFYNSLPSSISKAYLELDGATHVAPNIPNKIIGKYSVAWLKRFVDNDTRYTQFLCPGPRDGLFGEVEEYRSTCPFYPNSSSVDKLAAALE"}, "B2": {"name": "unnamed (protein)", "chain": "B1 chain with V209L"}, "B3": {"name": "unnamed (protein)", "chain": "B1 chain with V209W"}, "B4": {"name": "unnamed (protein)", "chain": "MNPFEKGPDPTKTMLEASTGPFTYTTTTVSSTTASGYRQGTIYHPTNVTGPFAAVAVVPGYLASQSSINWWGPRLASHGFVVITIDTNSTSDQPPSRATQLMAALNQLKTFSNTSSHPIYRKVDPNRLGVMGWSMGGGGTLIAARDNPTLKAAIPFAPWNSSTNFSTVSVPTLIIACESDSTAPVNSHASPFYNSLPSTTKKAYLEMNNGSHSCANSGNSNAGLIGKYGVSWMKRFMDNDTRFSPYLCGAPHQADLSLTAIDEYRENCPY"}}, "key": {"PET [1]": {"substrate": "PET", "experiment": "Proxy for plastic degradation [Released monomer concentration (HPLC/LC-MS) (Total aromatic products)] (nmol/(min*cm²))", "details": "pH 9"}, "PET [2]": {"substrate": "PET", "experiment": "Proxy for plastic degradation [Released monomer concentration (HPLC/LC-MS) (TPA+MHET)]", "details": "pH 9"}}, "note": "Where a chain is given by its changes, count along the chain named.", "data": [{"protein": "B1", "values": [{"measurement": "Proxy for plastic degradation", "setting": "PET [1]", "result": 6.5}]}, {"protein": "B2", "values": [{"measurement": "Proxy for plastic degradation", "setting": "PET [1]", "result": 0.5}]}, {"protein": "B3", "values": [{"measurement": "Proxy for plastic degradation", "setting": "PET [1]", "result": 3}]}, {"protein": "B4", "values": [{"measurement": "Proxy for plastic degradation", "setting": "PET [2]; 30 °C", "result": 795, "unit": "µM"}, {"measurement": "Proxy for plastic degradation", "setting": "PET [2]; 40 °C", "result": 790, "unit": "µM"}]}]}
